{"source": "paper PMC2946933", "biological_target": "Hfq K56A K56A (UniProt P0A6X3)", "assay": "SPR", "conditions": "EMSA: 50 mM Tris-HCl pH 7.5, 100 mM KCl, 10 mM MgCl2, room temperature, SPR: same buffer, 25 C, Tb footprinting: 50 mM Tris-HCl pH 8.0, 100 mM NaCl", "data": [{"sequence": "GCAGCGUUACAUUCCCAUCCACUGGGGAAAGACGCGGCGCUGAUUGGUGAAGUGGUGGAACGUAAAGGUGUUCGUCUUGCCGGUCUGUAUGGCGUGAAACGAACCCUCGAUUUACCACACGCCGAACCGCUUCCGCGUAUAUGCUAAUAAAAUUCUAAAUCUCCUAUAGUUAGUCAAUGACCUUUUGCACCGCUUUGCGGUGCUUUCCUGGAAGAACAAAAUGUCAUAUACACCGAUGAGUGAUCUCGGACAACAAGGGUUGUUCGACAUCACUCGGACAAAUAUUGGAUCCGCUCGG [fhlA220 mRNA]", "values": [{"measurement": "Kd", "value": 3, "unit": "nM"}]}]}
